Source: patent US7558625B2, “Combined micro-channel generation and iontophoresis for transdermal delivery of pharmaceutical agents” (TransPharma Medical Ltd., priority 2004, dated 2009)

Assay: Transdermal delivery of hGH by ViaDerm and iontophoresis in rats, high/low hGH dose vs SC
Format: in vivo
Set-up: hGH plasma levels: unit not given here
Conditions: for hGH plasma levels: Avg.
Experimental: In the present experiment a power supply (parallel connection instead of serial) was used in order to improve the power supply.
Human GH solution was prepared from a 12 mg Genotropin vial (Genotropin®, Pharmacia and Upjohn). The levels of hGH in serum were analyzed using Elisa kit (DSL Inc. Webster Tex., USA). HPLC was used to quantitate SC solution.
ViaDerm operating parameters: Burst length—700 μsec; Voltage—330V; Number of bursts—2; 2 applications on the same skin area (150 micro-channels/cm^2); Two application sites (total area 2.8 cm^2); Without current limitation; 80 μm diameter electrode of the electrode arrays.
Iontophoresis application parameters: Current density 0.64 mA/cm^2 (total 1.8 mA). Current elevation time (from 0-max) 20 seconds. Current application time 8 hours.

[1] = ViaDerm + Iontophoresis off 15 mg
[2] = ViaDerm + Iontophoresis on 1.5 mg
[3] = ViaDerm + Iontophoresis on 15 mg

## hGH: human growth hormone (Genotropin, Pharmacia and Upjohn)
1.5 mg hGH, Iontoph. on, +VD, 0.0 hr
  hGH plasma levels: 0.1
1.5 mg hGH, Iontoph. on, +VD, 1.0 hr
  hGH plasma levels: 225.1
1.5 mg hGH, Iontoph. on, +VD, 2.0 hr
  hGH plasma levels: 346.3
1.5 mg hGH, Iontoph. on, +VD, 3.0 hr
  hGH plasma levels: 617.3
1.5 mg hGH, Iontoph. on, +VD, 4.0 hr
  hGH plasma levels: 444.5
1.5 mg hGH, Iontoph. on, +VD, 6.0 hr
  hGH plasma levels: 184.3
1.5 mg hGH, Iontoph. on, +VD, 8.0 hr
  hGH plasma levels: 111.3
15 mg hGH, Iontoph. off, +VD, 0.0 hr
  hGH plasma levels: 0.1
15 mg hGH, Iontoph. off, +VD, 1.0 hr
  hGH plasma levels: 89.7
15 mg hGH, Iontoph. off, +VD, 2.0 hr
  hGH plasma levels: 178.7
15 mg hGH, Iontoph. off, +VD, 3.0 hr
  hGH plasma levels: 283.7
15 mg hGH, Iontoph. off, +VD, 4.0 hr
  hGH plasma levels: 389.4
15 mg hGH, Iontoph. off, +VD, 6.0 hr
  hGH plasma levels: 573.1
15 mg hGH, Iontoph. off, +VD, 8.0 hr
  hGH plasma levels: 873.4
15 mg hGH, Iontoph. on, +VD, 0.0 hr
  hGH plasma levels: 0.0
15 mg hGH, Iontoph. on, +VD, 1.0 hr
  hGH plasma levels: 504.8
15 mg hGH, Iontoph. on, +VD, 2.0 hr
  hGH plasma levels: 958.5
15 mg hGH, Iontoph. on, +VD, 3.0 hr
  hGH plasma levels: 2011.6
15 mg hGH, Iontoph. on, +VD, 4.0 hr
  hGH plasma levels: 2204.9
15 mg hGH, Iontoph. on, +VD, 6.0 hr
  hGH plasma levels: 1802.0
15 mg hGH, Iontoph. on, +VD, 8.0 hr
  hGH plasma levels: 1244.1
15 mg hGH, Iontoph. on, intact, 0.0 hr
  hGH plasma levels: 0.1
15 mg hGH, Iontoph. on, intact, 1.0 hr
  hGH plasma levels: 1.9
15 mg hGH, Iontoph. on, intact, 2.0 hr
  hGH plasma levels: 7.2
15 mg hGH, Iontoph. on, intact, 3.0 hr
  hGH plasma levels: 8.3
15 mg hGH, Iontoph. on, intact, 4.0 hr
  hGH plasma levels: 9.2
15 mg hGH, Iontoph. on, intact, 6.0 hr
  hGH plasma levels: 5.4
15 mg hGH, Iontoph. on, intact, 8.0 hr
  hGH plasma levels: 4.7
Intact + Iontophoresis 15 mg
  AUC: 47 ng·h/mL
  Bioavailability: 0.05%
S.C. 150 ug/0.2 ml hGH, 0.0 hr
  hGH plasma levels: 0.1
S.C. 150 ug/0.2 ml hGH, 1.0 hr
  hGH plasma levels: 153.0
S.C. 150 ug/0.2 ml hGH, 2.0 hr
  hGH plasma levels: 156.8
S.C. 150 ug/0.2 ml hGH, 3.0 hr
  hGH plasma levels: 127.8
S.C. 150 ug/0.2 ml hGH, 4.0 hr
  hGH plasma levels: 120.1
S.C. 150 ug/0.2 ml hGH, 6.0 hr
  hGH plasma levels: 75.3
S.C. 150 ug/0.2 ml hGH, 8.0 hr
  hGH plasma levels: 43.4
SC 150 ug
  AUC: 812 ng·h/mL
SC 150 ug (reference)
  Bioavailability: 100%
[1]
  AUC: 3156 ng·h/mL
  Bioavailability: 3.9%
[2]
  AUC: 2336 ng·h/mL
  Bioavailability: 28.8%
[3]
  AUC: 11630 ng·h/mL
  Bioavailability: 14.3%
abdomen, current on 0.64 mA/cm^2 for 8 hours
  clinical observations at the site of the patch application: Black burning marks (3rd degree burns)
Animals in which the power supply was off
  clinical observations at the site of the patch application: No burn marks
Intact skin, 15 mg hGH
  hGH delivery by iontophoresis alone: does not cause hGH delivery
